Assay results from patent publication US20240000961A1, “ANTIBODY-BASED CONJUGATE FOR ENHANCING THERAPEUTIC EFFECT OF TARGETED THERAPEUTIC AGENT” (THE CATHOLIC UNIVERSITY OF KOREA INDUSTRY-ACADEMIC …, priority 2020, published 2024).

Tests used:
NIH3T3 normal cells = format: cell-based; conditions: for toxicity: NIH3T3, at a concentration less than 10 μl/ml; for cytotoxicity: NIH3T3 normal cells, MTT, treated 4 hours then cultured 1 day
Experimental: (§3) Thereafter, the cells were washed with a buffer solution, and further cultured for 1 day by adding a clean medium thereto.
(§4) The cultured cells were treated with MTT reagent and further cultured for 3 hours, then the culture solution and the MTT reagent were both removed, and dimethyl sulfoxide was added to dissolve formazan formed in the cells. Thereafter, absorbance was measured at 570 nm to compare the amounts of formazan formed and analyze the viability and cytotoxicity of cancer cells.

L929 normal cells = format: cell-based; conditions: for toxicity: L929, at a concentration less than 10 μl/ml; for cytotoxicity: L929 normal cells, MTT, treated 4 hours then cultured 1 day
Experimental: as §3, §4

[1] = tested on: A549 lung cancer cell line expressing PD-L1; format: cell-based
Experimental: (§1) Thereafter, the viability and cytotoxicity of cells were analyzed in the same manner as in Experimental Example 2-1.
(§2) Lung cancer and colorectal cancer cell lines expressing PD-L1 (A549 and HCT116, respectively) were cultured, and then treated with an avelumab-succinyl-Pluronic conjugate. Thereafter, the viability and cytotoxicity of cells were analyzed in the same manner as in Experimental Example 2-1.

[2] = tested on: HCT116 (HCTE116) colorectal cancer cell line expressing PD-L1; format: cell-based
Experimental: as §1, §2

[3] = tested on: SKOV3 cells, ovarian cell line expressing the EGFR
Experimental: as §3, §4

[4] = tested on: NIH-3T3 cells (do not express EGFR); conditions: NIH-3T3, 2 hours, flow cytometer; non-specific inflow
Experimental: Thereafter, the cells were washed with a buffer solution and the targeting ability to each type of cell was analyzed by a flow cytometer.

| Substance | toxicity (NIH3T3 normal cells) | toxicity (L929 normal cells) | cytotoxicity (NIH3T3 normal cells) | cytotoxicity (L929 normal cells) | other results |
| --- | --- | --- | --- | --- | --- |
| avelumab-maleimide-Pluronic F68 [AVE-Mal-PF68] | non-toxic | non-toxic |  |  |  |
| avelumab-maleimide-Pluronic F127 [AVE-Mal-PF127] | non-toxic | non-toxic |  |  |  |
| avelumab-maleimide-polyethylene glycol 2K [AVE-Mal-PEG2K, reference compound] | non-toxic | non-toxic |  |  |  |
| avelumab-maleimide-polyethylene glycol 6K [AVE-Mal-PEG6K, reference compound] | non-toxic | non-toxic |  |  |  |
| avelumab-succinyl-Pluronic F68 [AVE-Suc-PF68] |  |  |  |  | cytotoxicity compared to avelumab antibody alone (AVE) or AVE-Suc-PEG2K/PEG5K [1]: greater increase in cytotoxicity; cytotoxicity compared to avelumab antibody alone (AVE) or AVE-Suc-PEG2K/PEG5K [2]: greater increase in cytotoxicity |
| avelumab-succinyl-Pluronic F127 [AVE-Suc-PF127] |  |  |  |  | cytotoxicity compared to avelumab antibody alone (AVE) or AVE-Suc-PEG2K/PEG5K [1]: greater increase in cytotoxicity; cytotoxicity compared to avelumab antibody alone (AVE) or AVE-Suc-PEG2K/PEG5K [2]: greater increase in cytotoxicity |
| maleimide-Pluronic F68 [Mal-PF68] |  |  |  |  | cytotoxicity [3]: non-cytotoxic |
| maleimide-Pluronic F68-chlorin e6 [Mal-PF68-Ce6] |  |  |  |  | fluorescence signals compared to CTX-Mal-PF68-Ce6 or CTX-Mal-PEG2K-Ce6 treatment group [4]: increased |
| maleimide-polyethylene glycol 2K-chlorin e6 [Mal-PEG2K-Ce6, reference compound] |  |  |  |  | fluorescence signals compared to CTX-Mal-PF68-Ce6 or CTX-Mal-PEG2K-Ce6 treatment group [4]: increased |
| ramucirumab-maleimide-Pluronic F68 [RAM-Mal-PF68] |  |  | non-toxic | non-toxic |  |
| ramucirumab-maleimide-Pluronic F127 [RAM-Mal-PF127] |  |  | non-toxic | non-toxic |  |
| ramucirumab-maleimide-polyethylene glycol 2K [RAM-Mal-PEG2K, reference compound] |  |  | non-toxic | non-toxic |  |
| ramucirumab-maleimide-polyethylene glycol 6K [RAM-Mal-PEG6K, reference compound] |  |  | non-toxic | non-toxic |  |
